Measurements taken from patent US20240287489A1, “CHITINOLYTIC ENZYME-BASED PLANT PROTECTION AGENTS” (GLOBACHEM NV, priority 2021, published 2024).

Legend:
Fusarium oxysporum = test: Minimum inhibitory concentration (MIC) test on fungal pathogens; format: cell-based; design: key: xx = no growth/strong inhibition; x = small inhibition; conditions: start concentration 100 μg/ml
[1] = Enzyme kinetics on chitin powder (Michaelis-Menten non-linear fit); format: biochemical; conditions: 2 μM enzyme, 0-150 mg/ml chitin powder
Method: Enzyme kinetics were determined using chitin powder as a substrate and the optimum enzyme to substrate ratio could be determined as well as Vmax and Km values. The concentrations of chitin powder varied
from 0 mg/ml up to 150 mg/ml while amount of enzyme was kept constant (2 μM). The initial velocities (V0) versus substrate concentration ([S]) were plotted as Lineweaver-Burk and Michaelis-Menten curves using GraphPad software (FIG. 7).
Maximum reaction velocities (Vmax) and Michaelis-Menten constants (Km) were determined using a non-linear fit Michaelis-Menten model (Table 4.6). Thereby, optimum enzyme-substrate ratios were determined that would allow a maximization of substrate conversion rates. Furthermore, the Km indicated the reciprocal enzyme-substrate affinity for C1-C5. Higher Km values reflect an overall lower affinity and thus reduced conversion efficiencies. […] In comparison, higher Km values for C2 and C5 reflected an overall lower affinity to insoluble chitin.
(§1) Enzyme samples were incubated at different temperature (10-60° C., 10° C. increment) and pH (4-11, increment 1) using different buffer systems (Acetate, Tris-HCl, MES, total molar concentration 100 mM), as well as NaCl content (0, 1. 2.5, 5, 10 and 20% w/v) to determine optimum reaction conditions. All experiments were carried out at 1.0 ml scale using 2 μM of the respective enzymes and a 5% (wv) suspension of chitin powder extracted from shrimp shells (˜400.000 g/mol; Carl, Roth) in 100 mM MAT buffer. For the determination of the substrate specificity, chitin powder (5% w/v), glycol chitin (10% v/v), colloidal chitin (5% w/v), chitosan [DA 15-25%, medium molecular weight, Sigma-Aldrich] (5% w/v) and microcrystalline cellulose powder (Sigma Aldrich) (5% w/v) were investigated, respectively. The effect of several potential co-factors on activity was elucidated at a concentration of 1 mM. Additionally, the effect of detergents [SDS 0.5% (w/v), Tween-20 and Triton X-100 both at 0.5% (v/v)] and chemicals (Imidazole 100 mM, EDTA 1 mM) on enzymatic activity was assessed. Samples were incubated in a thermomixer for 16 h at 900 rpm. After incubation, samples were analyzed using the enzyme assay. Thermostability was assessed after incubation of recombinant chitinases at 60° C. for different durations followed by the quantification of residual enzyme activity under standard assay conditions.

[2] = TLC analysis of cleavage patterns with chitin standard molecules; format: biochemical; conditions: for hydrolysis products from chitin pentamers / hydrolysis products from chitin trimers: 4 mg/ml, 16 h, TLC; for cleavage mechanism (exo-/endo-chitinase activity): TLC of products from oligomeric or polymeric chitin substrates
Method: monomeric oligomers. Chitosan was degraded to a crude mixture of multiple oligomers ranging from dimers to pentamers and even larger undefined yet water-soluble fragments that migrated slightly from the starting point. Further analysis of the cleavage patterns was carried out using chitin standard molecules of DP2-DP6 and incubating them at 4 mg/ml concentration with the individual enzymes (FIG. 9).
Dimeric chitin molecules were not converted by any of the enzymes. […] All chitinases degraded chitin tetramers to dimers as a single product. […] Chitin hexamers were degraded to dimers and trimers. Although all chitinases are different in their structure and present different glycosyl hydrolase domains hydrolysis products in general were similar.
C2, 4 and 5 yielded similar product patterns when incubated with insoluble substrates. […] The presented data underline that the novel chitinases are all suited for the degradation of powdery chitin without any further harsh chemical pre-treatment.
Hydrolysis products were analyzed using 10×10 cm TLC Silica gel 60 F254 plates (Merck, Darmstadt, Germany) and a mixture of butanol:methanol:25% ammonia:H2O (5:4:2:1) as mobile phase. A total sample volume of 0.5 μl was applied in 0.25 μl spots. Chitin standard sugars (Megazyme, Chicago, USA) (5 mg/ml) were applied to the plate (0.5 μL in 0.25 μL spots) as size standard for the determination of the DP. After separation, the plate was air-dried and the developing solution (200 ml Acetone, 30 ml phosphoric acid (85%), 4 ml aniline, 4 g diphenylamine) was sprayed on the plate followed by spot visualization at 300° C. using a heat gun.

[3] = Temperature, pH and NaCl optima and temperature stability of recombinant chitinases (reducing end assay); format: biochemical; conditions: for Optimum pH / Optimum salinity / Optimum temperature: chitin powder; for Optimum pH: 30° C., pH 4-11; for Optimum salinity: pH 8, 30° C., 0-20% w/v NaCl; for Optimum temperature: pH 8, range 10-60° C.
Method: All enzymes were first characterized regarding their temperature and pH-optima as well as the optimum NaCl content as the enzymes were isolated from a sea-water microorganism. As the future intention is to integrate these novel enzymes in a degradation processes of natural chitin, all parameters were determined using chitin powder as a substrate instead of pre-treated analogs such as colloidal chitin, glycol chitin or artificial fluorogenic substrates. […] (FIG. 5A). Next, enzyme temperature stability was investigated (FIG. 51). […] Enzyme C1 retained a 50% residual activity after 240 min incubation at 60° C., while the activity of the other chitinases dropped below 50% after 15 min and remained on that level.
Given the marine origin of the P. orarium strain, the effect of salt was also evaluated, testing the addition of NaCl to the standard buffer. […] Increasing NaCl amounts up to 20% (w/v) reduced enzyme activity substantially to 10% for C2, 4 and 5, with C1 and C3 showing highest tolerance (65% activity).
For the determination of enzymatic activity of recombinant chitinases, a reducing end assay was carried out [Svein et al., Carbohydr Polym, 2004. 56(1): p. 35-39.]. Fractions containing chitinases were incubated with 5% (w/v) chitin powder extracted from shrimp shells (˜400.000 g/mol; Carl Roth) in MAT buffer for 2 h in an overhead shaker at ambient temperature (standard conditions). Samples were centrifuged at 13000×g for 2 min and 40 μl of the supernatant was mixed with 40 μl 0.5 M NaOH and 40 μL of a reagent containing 1.5 mg/ml 3-Methyl-2-benzothiazolinonhydrazon and 0.75 mg/ml Dithiothreitol. Samples were incubated at 80° C. for 15 min and then thoroughly mixed with 80 μl of 0.5% (w/v) FeNH4(SO4)2)×12H2O, 0.5% (w/v) sulfamic acid and 0.25 M HCl. After cooling down to room temperature, 100 μl of the samples were measured at 620 nm. A calibration curve of N-acetyl-glucosamine was constructed freshly for each measuring cycle. One unit [U] was defined as the amount of enzyme required to release 1 μmol of reducing sugars per hour.
as §1

Row | Molecule | growth inhibition of Fusarium oxysporum in the MIC test (Fusarium oxysporum) | Km (enzyme-substrate affinity) [1] [mg/mL] | Vmax (maximum reaction velocity) [1] [U/ml] | hydrolysis products from chitin pentamers [2] | hydrolysis products from chitin trimers [2] | cleavage mechanism (exo-/endo-chitinase activity) [2] | Optimum pH [3] | Optimum salinity [3] [% NaCl] | Optimum temperature [3] [°C] | residual activity ([3]; after 240 min incubation at 60° C.) [%]
1 | Chitinase 4: chitinolytic enzyme from P. orarium, SEQ ID NO: 4, recombinant with PelB signal peptide and 6×His tag (protein, listed as Photobacterium orarium, PelB signal peptide; 6xHis tag; Chitinase 4) MAQAAANCRPDGLYQTPGVTVPYCTVYDQDGREKMGVDHPRRVIGYFTSWRSGNDPQSSYLVNDIPWDSLTHINYAFVSIGSDGKVNIGNVNNPDNPAVGKEWPGVEIDPALGFKGHFGALATAKAQHGVKTLISIGGWAETGGHFDDNGNRVADGGFYTMTTNADGSINHQGIQTFADSAVAMMRQYKFDGLDIDYEYPTSMQGAGNPDDFAYSDAMRPHLMKSYHELMKVLREKLDQASAQDGHHYMLTIAAPSSGYLLRGMETMSVTKYLDYVNIMSYDLHGAWNDYVGHNASLFDSGLDAELEAGNVYGTAQYKKTGYLNTDWAYHYFRGSMPAGRINIGVPYYTRGWQGVTGGTNGLWGKAALPNQSDCPTGTGAGTSNCGYGAIGIDNMWHDKDANGNEMGAGSNPMWHAMNLANGVYGSYTAAYGLDPVNDPQDALTGTYTRHYDSVSVAPWLWNADKKVFLSTEDKESINTKADYVIEQGIGGIMFWELAGDYSCYNLDANGNRTTVDPTENACKTGNGEYHMGDTMTKAIHNKFATATPYGNTLAEGAIPTEAVNIDVSVTGFKVGDQNYPLNPTMTLTNKTGQTLPGGTEFQFDIPTSTPDNMSDQSGANLQVISSGHTRGDNIGGLDGNFHRVAFTLPSWKQLGNNESFELTLNYFLPISGPANYSVRVNNADYALAFEQPDLPIADLSNGGGDNGGGDGNNGDCVTTGVNTYPNWPQTDWAGNPSHAGTGDKIIYNGAVYQAKWWTNSVPGSDGSWDTVCTVQIE | xx | 22.2 | 218.6 | trimers and dimers | dimers and monomers | endo-chitinase activity | 8 | 1 | 30 | –
2 | Chitinase 3: chitinolytic enzyme from P. orarium, SEQ ID NO: 3, recombinant with PelB signal peptide and 6×His tag (protein, listed as Photobacterium orarium, PelB signal peptide; 6xHis tag; Chitinase 3) MALAAPGTPQLAWMETDYAIVEVDQAATAYKDLVTVKNAADVPVAWQRYSGETADHWKVKLNGNVAFEESINPASSGAGSTTLSITQGGQYALTVELCSGSGAEEACSSSPATNIVVADTDGSHLDPLPMNVDPNNGTYSTPADTVVGAYFVEWGVFGRKFTVDKIPAQNLTHILYGFIPVCGPNESLGEIESGNSLAALNRACAGTPDFEVAIHDPWAAVQMPQPQSGHTYSTPYKGNYGQLMALKQRYPDLKVIPSIGGWTLSDPFFSFTDKSKRDVFVASVKKFLQTWKFFDGVDIDWEFPGGKGANTTLGDPVNDGPAYVALMRELRTMLDGLEAETGRQFELTSAIGVGYDKIDVVNYAEASQYMDYIFNMSYDFYGGWSNVTGHQTALNCGSHLTADQCNGTGVDENGEPRQGPAYTTAHGVERLLAQGVPANKLVVGAAMYGRGWTGVTQASMTDPSNPMTGVGNGAVAGSWEAGVIDYKDVVTRYENKAGVVLGYDEQAEAPWAYDPSNGDLVTYDSPRSIMAKGQYVRDLGLAGLFAWEIDADNGDILNAMQESLAGAPAGNRAPVARAGSDQQVNTAATVTLNGSSSTDSDGQIAGYQWVQTSGPALTLNGANTASATISVPDVTVDTQYVFTLTVTDNEGATATDSITVTAKAPGAQNTAPVASLTGPGTANADDVITLDASQSTDADGDTLTYDWTVPAGVNAVINGSSLSFTADSYTTDTALSFSVSVSDGTASDAASLTVTIAKDESGTGGEGDFPAYVEGTAYQAGDQVSNGGVNFECKPYPYSGWCSGAAWAYEPGVGVYWQDAWTQLIE | xx | 15.2 | 206.2 | dimers and monomers | dimers and monomers | exo-chitinase activity | 8 | 5 | 30 | –
3 | Chitinase 1: chitinolytic enzyme from P. orarium, SEQ ID NO: 1, recombinant with PelB signal peptide and 6×His tag; run 19 = 2 μM alone (protein, listed as Photobacterium orarium, PelB signal peptide; 6xHis tag; Chitinase 1, run 19 = 2 μM alone) MAAPGTPQIAWMETDYAIVEVDQAASAYKSLITVKPAAEVPVAWQRYSGETADLWKVKLNGNVVFEQSIAPASSGAGSTTLSVAQGGQYAMTVELCSGTGAAQACTSSAATNIVVADTDGSHLDPLPMNVDANNGNYTTPANTVVGAYFVEWGVYGRKFSVDNIPAQNLTHILYGFIPICGPNESLGEIENGNSLAALNRACQGTPDYEVVIHDPWAAVQMPQPQSGHTHSTPYKGTYGQMMALKQRYPDLKIVPSVGGWTLSDPFYSFTDKAKRDIFVASVKKFLKTWKFFDGVDIDWEFPGGKGANANLGDPVNDGPAYVALMRELRVMLDELEAETGRQYELTSAIGVGYDKIDVVNYADAVQYMDYIFAMTYDFFGGWNNVPGHQTALFCGSHMSADVCNGTGVDENGVPRQGPAYTAAHGIDRLLAQGVPANKLVLGTAMYARGWTGVTEASMTDPTNPMTGTGNGMVPGSWEPGVIDYKDVVTDYINNAAVTKGYDAQAEAPWAYNPSNGNLITYDDRRSVLAKGQYVRNLGLAGLFAWEIDADNGDILNAMQDSLAGGGGNYAPVAKAGADQVVNGAASVTLDGSASSDRDGQIVSYQWTQTSGPALTLTGSDTATATVAVPEVTADTQYAFTLTVTDNAGDTATDSVTVTAKAPGSNTAPVVAVSGPATASAGDTVVLDASQSSDADGDTLTFTWTVPAGVNATVNGATVSFVADSYTVDTPLNFTVAVSDGTDSVTESVTVTVLKDGGSTGCTNAWATGGVYNSGDIVTHSGKSWKAKWWTTGEEPGTTGEWGVWEDLGAANCQIE | xx | 9.1 | 197.7 | dimers and monomers | dimers and monomers | exo-chitinase activity | 8 | 1 | 30 | 50
